# Reference: US20130196348A1 (ACTELION PHARMACEUTICALS, published 2013)
# T1: human GALR2 (Galanin Receptor 2) (human, UniProt O43603 1-387)
# T1 sequence: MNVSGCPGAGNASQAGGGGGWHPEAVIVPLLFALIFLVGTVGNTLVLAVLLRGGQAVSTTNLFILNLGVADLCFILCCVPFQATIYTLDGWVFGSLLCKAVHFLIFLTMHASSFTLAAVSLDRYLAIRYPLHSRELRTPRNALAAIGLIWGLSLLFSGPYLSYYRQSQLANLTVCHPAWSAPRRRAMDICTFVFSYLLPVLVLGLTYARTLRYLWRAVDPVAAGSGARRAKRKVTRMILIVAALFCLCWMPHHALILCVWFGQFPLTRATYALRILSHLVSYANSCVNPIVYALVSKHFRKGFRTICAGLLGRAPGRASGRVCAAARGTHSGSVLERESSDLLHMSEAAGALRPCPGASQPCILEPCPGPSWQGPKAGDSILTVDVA
# Biological target: T1, human GALR2 (Galanin Receptor 2)
# Experiment: cell-based or functional assay
Binder,Aequorin EC50 [nM],FLIPR EC50 [nM]
SPNPQLLTIPEAATILLASLQKSPEDEEKNFDQTRFLEDSLLNW [human pro Neuropeptide Q (73-116) (SEQ ID NO: 17)],> 10000,–
NWTPQAMLYLKGAQG [human Neuropeptide Q-Glycine (SEQ ID NO: 14)],5.7,4.2
NWTPQAMLYLKGA [NWTPQAMLYLKGA (SEQ ID NO: 18)],–,4.3
NWTPQAMLYLKG [NWTPQAMLYLKG (SEQ ID NO: 19)],–,6.7
NWTPQAMLYLK [NWTPQAMLYLK (SEQ ID NO: 20)],–,1.9
NWTPQAMLYL [NWTPQAMLYL (SEQ ID NO: 21)],–,14
WTPQAMLYLKGAQG [WTPQAMLYLKGAQG (SEQ ID NO: 22)],–,4.8
AWTPQAMLYLKGAQG [AWTPQAMLYLKGAQG (SEQ ID NO: 23)],–,0.7
NWAPQAMLYLKGAQG [NWAPQAMLYLKGAQG (SEQ ID NO: 24)],–,10.9
NWTAQAMLYLKGAQG [NWTAQAMLYLKGAQG (SEQ ID NO: 25)],–,3.6
NWTPAAMLYLKGAQG [NWTPAAMLYLKGAQG (SEQ ID NO: 26)],–,12.5
NWTPQAALYLKGAQG [NWTPQAALYLKGAQG (SEQ ID NO: 27)],–,3.4
NWTPQAMAYLKGAQG [NWTPQAMAYLKGAQG (SEQ ID NO: 28)],–,0.8
NWTPQAMLYLAGAQG [NWTPQAMLYLAGAQG (SEQ ID NO: 29)],–,9.6
NWTPQAMLYLKAAQG [NWTPQAMLYLKAAQG (SEQ ID NO: 30)],–,47
NWTPQAMLYLKGAAG [NWTPQAMLYLKGAAG (SEQ ID NO: 31)],–,0.1
NWTPQAMLYLKGAQA [NWTPQAMLYLKGAQA (SEQ ID NO: 32)],–,2
PWTPQAMLYLKGAQG [PWTPQAMLYLKGAQG (SEQ ID NO: 33)],–,0.1
NWPPQAMLYLKGAQG [NWPPQAMLYLKGAQG (SEQ ID NO: 34)],–,0.05
NWTPPAMLYLKGAQG [NWTPPAMLYLKGAQG (SEQ ID NO: 35)],–,97
NWTPQPMLYLKGAQG [NWTPQPMLYLKGAQG (SEQ ID NO: 36)],–,55
NWTPQAMLYLPGAQG [NWTPQAMLYLPGAQG (SEQ ID NO: 37)],–,296
NWTPQAMLYLKPAQG [NWTPQAMLYLKPAQG (SEQ ID NO: 38)],–,20
NWTPQAMLYLKGPQG [NWTPQAMLYLKGPQG (SEQ ID NO: 39)],–,0.3
NWTPQAMLYLKGAPG [NWTPQAMLYLKGAPG (SEQ ID NO: 40)],–,0.2
NWTPQAMLYLKGAQP [NWTPQAMLYLKGAQP (SEQ ID NO: 41)],–,0.3
NWTPQAMLYLKGAQGH [rat Neuropeptide Q (SEQ ID NO: 15)],5.06,–
NWTPQAMLYLKGAQGRRFISDQS [human pro Neuropeptide Q (36-58) (SEQ ID NO: 16)],17.6,–
